The values that follow come from patent US20230212285A1.

The term Kd denotes the constant that tells how readily two partners part at equilibrium. Low readings indicate a tighter complex, high ones a looser complex.

For assay [1], the target named is human FcγRIIb, His6-tagged (human) (UniProt P31994). Put plainly: SPR, steady state. A general note: Surface plasmon resonance follows binding to a sensor surface in real time, without labels.
Assay [2] deals with human FcγRI, His6-tagged (human) (UniProt P12314). Put plainly: SPR, 1:1 kinetic.
Chain of human FcγRI, His6-tagged (human) (P12314 16-288 limits assumed): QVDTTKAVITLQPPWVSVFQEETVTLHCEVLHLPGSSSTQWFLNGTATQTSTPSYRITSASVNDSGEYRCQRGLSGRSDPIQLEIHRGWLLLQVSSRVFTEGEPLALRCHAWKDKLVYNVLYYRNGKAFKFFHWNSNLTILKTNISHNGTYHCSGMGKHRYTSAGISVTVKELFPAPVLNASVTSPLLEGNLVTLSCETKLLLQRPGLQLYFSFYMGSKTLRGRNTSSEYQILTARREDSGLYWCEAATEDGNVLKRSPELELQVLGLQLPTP

Chain of human FcγRIIb, His6-tagged (human) (P31994 43-217 limits assumed): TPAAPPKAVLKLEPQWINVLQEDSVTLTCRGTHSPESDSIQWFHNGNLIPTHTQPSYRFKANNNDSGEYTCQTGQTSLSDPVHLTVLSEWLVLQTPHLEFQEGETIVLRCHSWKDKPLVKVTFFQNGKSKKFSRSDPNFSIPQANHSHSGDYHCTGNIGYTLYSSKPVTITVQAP

In the case of isotype control human IgG4 (antibody), the Kd in assay [1] stood at 23.1 µM; in assay [2] it was 0.00925 µM.
